We go through 6 substances from the supplement of paper PMC5998384.

For series [1], the system named is HeLa Kyoto. The experiment in a line: melting temperature (median over replicates), in situ; higher = more thermally stable.
Series [2] relates to HeLa Kyoto. The experiment in a line: solubility in G1/S (NP-40 vs SDS abundance) (log2 ratio); higher = more soluble. To be noted: cell cycle stage: G1/S.
Series [3] deals with HeLa Kyoto. The experiment in a line: solubility change mitosis vs G1/S (difference of NP-40 vs SDS log2 ratios) (log2 ratio difference); higher = more soluble in mitosis.
Series [4] deals with HeLa Kyoto. The experiment in a line: thermal stability score vs G1/S (z-score of summed log2 fold changes over temperatures); higher = more thermally stable than in G1/S.
Setting [5] is: cell cycle stage: early G1 (4.5 h after nocodazole release).
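Throughout, for melting temperature (median over replicates), in situ: HeLa Kyoto cells synchronized by double thymidine or nocodazole block, proteins quantified by TMT10plex mass spectrometry, three independent biological replicates.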
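Throughout, for solubility change mitosis vs G1/S (difference of NP-40 vs SDS log2 ratios): synchronized HeLa Kyoto cells (double thymidine block for G1/S, nocodazole release for mitosis), protein amounts in NP-40 versus SDS lysates quantified by mass spectrometry, three biological replicates.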
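Throughout, for solubility in G1/S (NP-40 vs SDS abundance): HeLa Kyoto cells arrested at G1/S by double thymidine block, proteins quantified by TMT10plex mass spectrometry in mild NP-40 versus SDS extracts, three biological replicates.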
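Throughout, for thermal stability score vs G1/S (z-score of summed log2 fold changes over temperatures): synchronized HeLa Kyoto cells, proteins quantified by TMT10plex mass spectrometry, three biological replicates, mitosis taken 0.5 h after nocodazole release, G1/S directly after double thymidine block.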

With “MDIRPNHTIYINNMNDKIKKEELKRSLYALFSQFGHVVDIVALKTMKMRGQAFVIFKELGSSTNALRQLQGFPFYGKPMRIQYAKTDSDIISKMRGTFADKEKKKEKKKAKTVEQTATTTNKKPGQGTPNSANTQGNSTPNPQVPDYPPNYILFLNNLPEETNEMMLSMLFNQFPGFKEVRLVPGRHDIAFVEFENDGQAGAARDALQGFKITPSHAMKITYAKK [SNRPB2]”, the melting temperature stood at 54.2 °C in the series on HeLa Kyoto [1] (cell cycle stage: G1/S) and 53.2 °C in the series with HeLa Kyoto [1] (cell cycle stage: mitosis). Moreover, the “solubility in G1/S (log2)” value in the series on HeLa Kyoto [2] is 0.221. For the same substance, the “solubility change mitosis (log2)” value in the series with HeLa Kyoto [3] was determined as 0.472. Besides, the thermal stability score with HeLa Kyoto [4] (setting [5]) was -2.85; in the series on HeLa Kyoto [4] (cell cycle stage: mitosis), -4.3.

With “MAFAETYPAASSLPNGDCGRPRARPGGNRVTVVLGAQWGDEGKGKVVDLLAQDADIVCRCQGGNNAGHTVVVDSVEYDFHLLPSGIINPNVTAFIGNGVVIHLPGLFEEAEKNVQKGKGLEGWEKRLIISDRAHIVFDFHQAADGIQEQQRQEQAGKNLGTTKKGIGPVYSSKAARSGLRMCDLVSDFDGFSERFKVLANQYKSIYPTLEIDIEGELQKLKGYMEKIKPMVRDGVYFLYEALHGPPKKILVEGANAALLDIDFGTYPFVTSSNCTVGGVCTGLGMPPQNVGEVYGVVKAYTTRVGIGAFPTEQDNEIGELLQTRGREFGVTTGRKRRCGWLDLVLLKYAHMINGFTALALTKLDILDMFTEIKVGVAYKLDGEIIPHIPANQEVLNKVEVQYKTLPGWNTDISNARAFKELPVNAQNYVRFIEDELQIPVKWIGVGKSRESMIQLF [ADSS]”, the figures for the melting temperature in the series on HeLa Kyoto [1] (cell cycle stage: G1/S) and in the series on HeLa Kyoto [1] (cell cycle stage: mitosis) were 57.5 °C and 56.5 °C, respectively. Further, the “solubility in G1/S (log2)” value with HeLa Kyoto [2] was 0.288. For the same substance, the “solubility change mitosis (log2)” value with HeLa Kyoto [3] is -0.0978. Besides, the thermal stability score in the series on HeLa Kyoto [4] (setting [5]) is -2.13; in the series on HeLa Kyoto [4] (cell cycle stage: mitosis), -2.82.

Consider “MARRGWRRAPLRRGVGSSPRARRLMRPLWLLLAVGVFDWAGASDGGGGEARAMDEEIVSEKQAEESHRQDSANLLIFILLLTLTILTIWLFKHRRARFLHETGLAMIYGLLVGLVLRYGIHVPSDVNNVTLSCEVQSSPTTLLVNVSGKFYEYMLKGEISSHELNNVQDNEMLRKVTFDPEVFFNILLPPIIFYAGYSLKRRHFFRNLGSILAYAFLGTAISCFVIGSIMYGCVTLMKVTGQLAGDFYFTDCLLFGAIVSATDPVTVLAIFHELQVDVELYALLFGESVLNDAVAIVLSSSIVAYQPAGDNSHTFDVTAMFKSIGIFLGIFSGSFAMGAATGVVTALVTKFTKLREFQLLETGLFFLMSWSTFLLAEAWGFTGVVAVLFCGITQAHYTYNNLSTESQHRTKQLFELLNFLAENFIFSYMGLTLFTFQNHVFNPTFVVGAFVAIFLGRAANIYPLSLLLNLGRRSKIGSNFQHMMMFAGLRGAMAFALAIRDTATYARQMMFSTTLLIVFFTVWVFGGGTTAMLSCLHIRVGVDSDQEHLGVPENERRTTKAESAWLFRMWYNFDHNYLKPLLTHSGPPLTTTLPACCGPIARCLTSPQAYENQEQLKDDDSDLILNDGDISLTYGDSTVNTEPATSSAPRRFMGNSSEDALDRELAFGDHELVIRGTRLVLPMDDSEPPLNLLDNTRHGPA [SLC9A6]”, for which the results for the melting temperature in the series with HeLa Kyoto [1] (cell cycle stage: G1/S) and in the series with HeLa Kyoto [1] (cell cycle stage: mitosis) were 56.1 °C and 57.1 °C, respectively. In addition, the “solubility in G1/S (log2)” value in the series on HeLa Kyoto [2] was 0.0823. For the same substance, the “solubility change mitosis (log2)” value with HeLa Kyoto [3] is -0.268. Moreover, the thermal stability score in the series with HeLa Kyoto [4] (setting [5]) was -2.9; in the series on HeLa Kyoto [4] (cell cycle stage: mitosis), -3.5.

With “MAQLGAVVAVASSFFCASLFSAVHKIEEGHIGVYYRGGALLTSTSGPGFHLMLPFITSYKSVQTTLQTDEVKNVPCGTSGGVMIYFDRIEVVNFLVPNAVYDIVKNYTADYDKALIFNKIHHELNQFCSVHTLQEVYIELFDQIDENLKLALQQDLTSMAPGLVIQAVRVTKPNIPEAIRRNYELMESEKTKLLIAAQKQKVVEKEAETERKKALIEAEKVAQVAEITYGQKVMEKETEKKISEIEDAAFLAREKAKADAECYTAMKIAEANKLKLTPEYLQLMKYKAIASNSKIYFGKDIPNMFMDSAGSVSKQFEGLADKLSFGLEDEPLETATKEN [ERLIN2]”, the melting temperature with HeLa Kyoto [1] (cell cycle stage: G1/S) came to 52.7 °C; with HeLa Kyoto [1] (cell cycle stage: mitosis) it was 53.2 °C. Moreover, the “solubility in G1/S (log2)” value with HeLa Kyoto [2] worked out at 0.0653. For the same substance, in the series with HeLa Kyoto [3], the “solubility change mitosis (log2)” value is -0.0221. Moreover, the figures for the thermal stability score in the series on HeLa Kyoto [4] (setting [5]) and with HeLa Kyoto [4] (cell cycle stage: mitosis) were 2.26 and 1.92, respectively.

Consider ZCCHC6, for which the figures for the melting temperature in the series on HeLa Kyoto [1] (cell cycle stage: G1/S) and in the series on HeLa Kyoto [1] (cell cycle stage: mitosis) were 49.9 °C and 49.3 °C, respectively. Besides, the “solubility in G1/S (log2)” value in the series with HeLa Kyoto [2] was -0.226. Moreover, the “solubility change mitosis (log2)” value in the series with HeLa Kyoto [3] was 0.0648. The thermal stability score with HeLa Kyoto [4] (setting [5]) stood at 1.03; with HeLa Kyoto [4] (cell cycle stage: mitosis) it was 2.02.

For the substance “MACAEFSFHVPSLEELAGVMQKGLKDNFADVQVSVVDCPDLTKEPFTFPVKGICGKTRIAEVGGVPYLLPLVNQKKVYDLNKIAKEIKLPGAFILGAGAGPFQTLGFNSEFMPVIQTESEHKPPVNGSYFAHVNPADGGCLLEKYSEKCHDFQCALLANLFASEGQPGKVIEVKAKRRTGPLNFVTCMRETLEKHYGNKPIGMGGTFIIQKGKVKSHIMPAEFSSCPLNSDEEVNKWLHFYEMKAPLVCLPVFVSRDPGFDLRLEHTHFFSRHGEGGHYHYDTTPDIVEYLGYFLPAEFLYRIDQPKETHSIGRD [C11ORF54]”, the melting temperature is 55.7 °C with HeLa Kyoto [1] (cell cycle stage: G1/S) and 56.3 °C in the series on HeLa Kyoto [1] (cell cycle stage: mitosis). Further, the “solubility in G1/S (log2)” value with HeLa Kyoto [2] was 0.72. Moreover, in the series on HeLa Kyoto [3], the “solubility change mitosis (log2)” value is -0.126. Further, the thermal stability score with HeLa Kyoto [4] (setting [5]) is -2.98; in the series with HeLa Kyoto [4] (cell cycle stage: mitosis), -4.1.
